{"source": "patent US7172865B2", "about": "“Rapid and sensitive assay for the detection and quantification of coregulators of nucleic acid binding factors” (Saint Louis University, priority 2001, dated 2007)", "molecules": {"B1": {"name": "CAP: bacterial transcription activator from E. coli which binds DNA in a sequence specific, cAMP-dependent manner (protein, UniProt P0ACJ8 2-210, looked up)", "DNA-binding transcriptional …": "VLGKPQTDPTLEWFLSHCHIHKYPSKSTLIHQGEKAETLYYIVKGSVAVLIKDEEGKEMILSYLNQGDFIGELGLFEEGQERSAWVRAKTACEVAEISYKKFRQLIQVNPDILMRLSAQMARRLQVTSEKVGNLAFLDVTGRIAQTLLNLAKQPDAMTHPDGMQIKITRQEIGQIVGCSRETVGRILKMLEDQNLISAHGKTIVVYGTR"}}, "key": {"[1]": {"tested_on": "CAP5/CAP3 and CAP1/CAP4 duplexes", "experiment": "two-color simultaneous detection, coumarin-labeled CAP constructs", "format": "binding", "settings": "excitation 433 nm, one protein only", "source_text": "The compatibility of the assays described in the instant invention with a variety of fluorescence probes emitting at different wavelengths allows for the designing of variations in which two or more proteins may be detected simultaneously. Nucleic acid constructs specific for each of the proteins to be detected may be labeled with probes that emit light at different wavelengths. In this example, the reaction mixture contained nucleic acid constructs labeled with 7-diethylaminocoumarin-3-carboxylic acid for detecting CAP protein (described in EXAMPLE 2) and nucleic acid constructs labeled with fluorescein for detecting TrpR protein (described in EXAMPLE 6). Specifically, 100 nM CAP5/CAP3, 120 nM CAP1/CAP4, 100 nM TRP2/TRP3, and 120 nM TRP1/TRP4 duplexes were present in the reaction mixture.\nThe fluorescence spectra with the excitation at 433 nm (excitation of 7-diethylaminocoumarin-3-carbo acid, FIG. 17A) and with the excitation at 490 nm (excitation of fluorescein, FIG. 17B) were recorded in the absence of the proteins (curves 1), in the presence of CAP only (curves 2), in the presence of TrpR only (curves 3), and in the presence of both CAP and TrpR (curves 4). In the presence of only CAP there was no change in the fluorescein signal (FIG. 17B, curve 2) whereas about 60% quenching of the 7-diethylaminocoumarin-3-carbox acid signal was observed (FIG. 17A, curve 2). […]"}, "[2]": {"tested_on": "consensus CAP site split between CAP1/CAP4 and CAP2/CAP3 duplexes", "experiment": "CAP detection by fluorescence quenching, fluorescein/dabcyl-labeled half-site duplexes", "format": "binding, E. coli", "source_text": "A 38 bp DNA sequence corresponding to a consensus CAP site (Ebright, R. H., Ebright, Y. W. & Gunasakera, A. Nucleic Acids Res. 17, 10295–10305, 1989) was used as a basis for designing oligonucleotides necessary for preparing the CAP assay reagents according to the scheme illustrated in FIG. 1A. FIG. 3 illustrates the details of the design used. The following four oligonucleotides were synthesized using standard phosphoramidate automated oligonucleotide synthesis (F=dT-fluorescein; D=dT-dabcyl):\nThe fluorescence donor (fluorescein) and the fluorescence acceptor (dabcyl) were introduced into DNA fragments using commercially available dT-fluorescein and dT-dabcyl (Glen Research, Sterling, Va.) , wherein dT stands for deoxythymidine. […] The fractions containing the oligonucleotides were dried in a vacuum centrifuge concentrator and subsequently dissolved in 50 μl of water. […] The CAP1 oligonucleotide (SEQ ID NO:1) was hybridized with CAP4 oligonucleotide (SEQ ID NO:4) to generate the CAP1/CAP4 duplex and CAP2 oligonucleotide (SEQ ID NO:2) was hybridized with CAP3 oligonucleotide (SEQ ID NO:3) to generate the CAP2/CAP3 duplex. […] The excitation wavelength was at 490 nm and the emission was recorded from 500 to 650 nm.\nFIG. 4B illustrates changes in fluorescence observed upon the addition of CAP protein. The spectrum of 50 nM of the CAP1/CAP4 duplex and 50 nM of the CAP2/CAP3 duplex was recorded (curve 1). CAP protein was added at 75 nM and after 15 minutes of incubation the spectrum was recorded (curve 2). A major quenching of fluorescence of approximately 50% of the control signal intensity was observed, which is consistent with the prediction that in the presence of CAP protein the association between the CAP1/CAP4 and CAP2/CAP3 duplexes is facilitated and that the fluorescein (fluorescent donor) present in the CAP2/CAP3 duplex is brought into close proximity to the dabcyl (fluorescent acceptor) present in the CAP1/CAP4 duplex, which results in the quenching of fluorescence emission due to FRET between the fluorescein and dabcyl.\nFIG. 6 illustrates the change in fluorescence observed upon addition of increasing amounts of CAP protein in the assay. The experiments were performed under the same conditions as those for the experiment described above and in FIG. 4. Fluorescence quenching increased proportionally with the increase of CAP concentration until a saturation of the signal occurred at ˜150 nM protein.\nThe kinetics of CAP induced fluorescence quenching was also studied to determine the time required for completion of the assay (FIG. 7). […] At the time indicated by the arrow in FIG. 7, 100 nM CAP protein was added and monitoring of the fluorescence signal was resumed."}, "[3]": {"tested_on": "CAP nucleic acid binding element (CAP10/CAP11 and CAP12/CAP13)", "experiment": "multiwell plate assay, immobilized CAP10/CAP11 and biotin-labeled CAP12/CAP13, streptavidin-peroxidase detection", "settings": "for Absorbance (450 nm), + CAP: 200 μM cAMP", "experimental": "To illustrate the extensive flexibility of the invention in terms of detection mode, an experiment following the general design depicted in FIG. 1E was performed. The following oligonucleotides, which when fully assembled contain a complete CAP nucleic acid binding element, were synthesized (X=amino-dT; B=biotin):\nThe CAP10 oligonucleotide was hybridized with the CAP11 oligonucleotide to generate the first nucleic acid component. The CAP 12 oligonucleotide was hybridized with the CAP13 oligonucleotide to generate the second nucleic acid component. For hybridization, appropriate oligonucleotides were (1) mixed at 10 μM concentration in 100 μl of buffer (500 mM Na2HPO4, pH 8.6, 1 mM EDTA, in the case of CAP10/CAP11 oligonucleotides; and 20 mM Tris, pH 8.0, 100 mM NaCl, 10 μM EDTA, in the case of CAP12/CAP13 oligonucleotides), (2) heated for 1 min at 95° C., and then (3) cooled to 25° C for 1 hr. The first nucleic acid component (CAP10/CAP11 half-site duplex) was covalently attached to the wells of a N-oxysuccinimide-activated 96 well plate (DNA-BIND, Corning, Acton, Mass.) by incubating 200 μl of first nucleic acid component (at 100 nM) per well in 500 mM Na2HPO4 (pH 8.6), 1 mM EDTA buffer for 1 hr followed by washing with 50 mM Tris (pH 8.0), 100 mM NaCl, 1 mM EDTA containing 0.1 mg/ml BSA. […] After incubation for 1 hr at room temperature, the wells were washed twice with the buffer followed with the addition of streptavidin-linked horseradish peroxidase (Pierce, Rockford, Ill.) at the dilution recommended by the manufacturer. After 30 min of incubation, the wells were washed twice with buffer followed with the addition of 100 μl of Turbo-TMB™ peroxidase substrate solution (Pierce, Rockford, Ill.). […] The absorbance at 450 nm of the sample and control wells were read using a standard microplate reader."}}, "note": "Entries after “also recorded” stand apart in the source; their conditions may differ.", "data": [{"molecule": "B1", "values": [{"measurement": "quenching of the 7-diethylaminocoumarin-3-carboxylic acid signal", "setting": "[1]", "value": "about 60%"}, {"measurement": "protein concentration at saturation of the quenching signal", "setting": "[2]; 50 nM duplexes", "value": "~150", "unit": "nM"}, {"measurement": "quenching of fluorescence", "setting": "[2]; 75 nM CAP, 15 minutes, 50 nM of each duplex, 200 μM cAMP", "value": "approximately 50%"}, {"measurement": "time for the reaction to go to completion", "setting": "[2]; 100 nM CAP, emission 520 nm", "value": "approximately 15 minutes"}, {"measurement": "change in fluorescence upon addition of CAP", "setting": "[2]; in the absence of cAMP", "value": "No change in fluorescence; also recorded: does not produce a change in fluorescence signal intensity"}, {"measurement": "increase in absorbance signal compared to controls without CAP or cAMP", "setting": "[3]; 10 nM CAP12/CAP13", "value": "approximately 3 fold"}, {"measurement": "Absorbance (450 nm), + CAP", "setting": "[3]; 10 nM CAP12/CAP13, 250 nM CAP", "value": 0.7308}, {"measurement": "Absorbance (450 nm), + CAP", "setting": "[3]; 20 nM CAP12/CAP13, 250 nM CAP", "value": 0.8584}]}]}
